Assay: yeast display, Sf9 membrane polyspecificity reagent, FACS + sequencing; frameworks hold sequencing errors
Outline: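 Galactose-induced (36–48 hours) yeast carrying a synthetic nanobody display library were exposed to 10% biotinylated, detergent-solubilized Sf9 membrane reagent at 4 °C for 1 hour. FACS followed streptavidin microbead enrichment, using low and high (top ~1%) gates for expression (anti-HA) and reagent binding (streptavidin). Colony PCR, MiSeq 2 × 250 sequencing and CDR-length filtering followed. Labels for polyreactivity reflect the gate of origin.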

Row | Sequence | polyreactivity (PSR sort gate)
1 | QVQLVESGRGLVPAGGSLRLSCAASGSIFTDYAMGWSRKAPGKERELVATITWSDASTYYTDSVKGRFTISRDNAKNTVYLQMNSLKPEDTAVYYFARRSRYSKGYDYWGQGTQVTVSS | low polyreactivity
2 | QVQLVESGGGLVQAGGSLRLSCAASGRIFFLNTMGWYRQAPGKERELVAAITRGGSTYYADSVKGRFTISRDNAKNTVYLQMNSLKPEDTAVYYCAADVYGGIGYDYWGQGTQVTVSS | low polyreactivity
3 | QVQLVESSGGLVQAGGSLRLSCSASGRTFVWYDMGWYRQAPGKERELVAAITKRGTSTYYADSVKGRFTISRDNAKNTVYLQMNSLKPEDTAVYYCAVEYIYWFHCRSSFIYDYWGQGTQVTVSS | low polyreactivity
4 | QVQLVESGGGLVQAGGSLRLSCAASGYIFLGNAMGWYRQAPGKERELVAAISRSGGSTYYADSVKGRFTISRDNAKNTVYLQMNSLKPEATAVYYCAAGTRIYNSWIRFDYWGQGTQVTVSS | high polyreactivity
5 | QVQLVESGGGIVQAGGSLRLSCAASGRNFVRNAMGWYRQAPGKERELVAAISGGGGNTYYADSVKGRFTISRDNAKNTVYLQMYSLKPEDTAVYYCNALAYGYWYRYYYWGLGTQVTVSS | high polyreactivity
6 | QVQLVDSGGCLVHAGASLRLSCAASGGIFRTYAMGWARQAAGKERELVAAITFSAGSTFYADSVKGRYTISRDNAKNTVYLQMNSLKPEDTAVYDCATPGYILGLYQYWHHYDYWGQGTQVTVSS | low polyreactivity
7 | QVQLVESGGGIVQAGGSLRVSCAASGRTFWGYAMGWYRQAPGKERELVAALNKSGGSTYYADSVKGRFTISRDNAKNTVYLQKNSLNPEDTAVYYCIAVYYWYKGDYWGQGTQVTVSS | high polyreactivity
8 | QVQLVESGGGLVQAGGSLRLSCAASGYIFYTYAMGWYRQAPGKERELVAGINRGDSTNYADSVKGRFTISRDNAKNTVYLQMNSLKPEDTAVYYCNARQRTYYRTHRIRHKGNGYWGQGTQVTVSS | low polyreactivity
9 | QDQLVDSGGGLVQAGGSLRLSCAASGSTFGYYVMGWYRQAPGKERELVAAISDSDGSTYYADSVKGRFTISRDNAKNTVYLQMYSLKPEDTAVYYCATGPHQPPYSYLDYDYWGQGTQVTVSS | low polyreactivity
10 | QVQLVESGGGLVQAGGILRISCAASGSISSYYAMGWYRPAPGKERELVAAITSGGRTYFADSVKGRFTISRDNAKNTVYFQMNSLKQEDTAVYYCNARTARNPIKGRASDYWGQGTQVTVSS | high polyreactivity
11 | QVQLVESGGGLVQAGGSLRLSCAASGRTFGYNAMGWYRQAPGKERELVAVIRSGGSTSYADSVKGRFTISRDNAKNTVYLQMNSLKPEDTAVYYCAATGLYNVTSPYSYKYDYWGQGTQVTVSS | low polyreactivity
12 | QVQLVETGGGLVQAGGSLRLSCAASGGIFVANAMGWYRQAPGKERELVAAISKRGGSTTYADSVKGRFTISRDNAKHTVYLQMNRLKPEDTAVYYCAKVVSPVYLYPSGYDYWGQGTQVTVSS | low polyreactivity
13 | QVQLVESGGGLVQAGGSLRLSCAASGRTFPYNAMGWYRQAPGKEMELVAAITKSAGRTYYAYSVKGRFTISRDNAKNTVYLQMNSLKPEDTAVYYCNTVTVAYGYTRLYAQYYYWGQGTQVTVSS | high polyreactivity
14 | QVQLVESGGGLVQAGGSLRLSCAASGFIFYRYTMGWSRQAPGKERELVAGSSSRGTRTYYADSVKGRFTISRDNAKNTVYLQMNSLKPEDTAVYYCAKVDGSKRYNYWGQGTQVTVSS | high polyreactivity
15 | QVKLVESGGGLVQAGGSLRLSCAASGRTISGNAMGWYRQAPGKERELVATISGRGGSTYYADSVKGSFTISRDNAKNTVYLQMTSLKPEDTAVYYCAKRLYSRRPLMDSWGQGTQVTVSS | high polyreactivity
16 | QVQLVESGGGLVQAGGSLRLSCAASGFIRYYAMGWYRNAHGKERELVAAITATGASTYYADSVKGRFTISRDNAKNTVYLQMNSLKPEDTAVYYCIVRLRISSGYWGQGTQVTVSS | high polyreactivity
17 | QVQLVESGGGLVQAGGSLRLSCAASGSTFYYYAMGWYRQAPGKERELVASISSAGNTNYADSVKGRFTISRDNAKNTVYLQMNSLKPEDTAVYYCAARYSGHPRYYYYWGQGTQVTVSS | low polyreactivity
18 | QVQLVESGGGLVQAGGSLRLSCAASGSTFLWYAMGWYRQAPGKERELVAVIDWSGGSTSYADSVKGRFTISRDNAKNTVYLQMNSLKPEDTAVYYCAADYGHYYGLYYWGQGTQVTVSS | low polyreactivity
19 | QVQLVESGGGLLQAGGSLPLSCAASGRIFIKYAMGWYRPAPGKERELVAAISQSGGSTYYADSVKGRFTISRDNAKNTVYLQMNSLKPEDTAVYYCAAGNRRLGGRLYRYYYWGQGPQVTVSS | high polyreactivity
20 | QVQLLESGGGLVQAGGSLRLTCAASGSTFRYNAMGWYRQAPGKERELVAAISSGSSTNYADSVKGRFTLSRDNAKNTVYLQMNSLKPEDTAVYYCAAQPGYYDDFYYWGQGTQVTVSS | low polyreactivity
21 | QVQHVESGGGLVQAGGSLPLSCAASGFIFYNYAQRCYTQPPGKERELVAAISSGDDTTYADSVKGRFTISRDNAKNTVYLQMNSLKPDDTAVYYCNTVRSVKQQGPYGYCGQGTQVTVSS | low polyreactivity
22 | QVQLVESGGGLVQAGGSLRLSCAASGSTFSANAMGWYRPAPGKERELVAAISRSGTRTYYADSVKGRFTISRDNAKNTVYLQMNSLKPEDTAVYYCAAYVYQYGYDYWGQGTQVTVSS | high polyreactivity

Row | Sequence | polyreactivity (PSR sort gate)
23 | QVQLVESGGGLVQAGGSLRLSCAASGGIFSSYVMGWYRQAPGKERELVAAIRWSGSSTYYADSVKGRFTISRDNAKNTVYLQMNSLKPEDTAVYYCAAYRDYGSYGSWGQGTQVTVSS | high polyreactivity
24 | QVQLVESGGGLVQAGGSLRLSCAASGRIFATYAMGWYRQAPGKERELVAAISDSGGRTYYADSVKGRFTISRDNAKNTVYLQMNSLKPEDTAVYYCARRAVYGIFDYWGQGTQVTVSS | high polyreactivity
25 | QVQLVESGGGLVQAGGSLRLSCAASGRTFGYYAMGWYRQAPGKERELVAGIRSSGGSTYYADSVKGRFTISRDNAKNTVYLQMNSLKPEDTAVYYCAARLRSYHYRYGYDYWGQGTQVTVSS | high polyreactivity
26 | QVQLVESGGGLVQAGGSLRLSCDASGNIFYPNAMGLYRQAPGKERELVAAISSSGGSTYYADSVKGRFTISRDNAKNTVYLQMNSLKPEDTAVYYFAKDRSYAYYLWPYPTGYDYWGQGTQVTVSS | low polyreactivity
27 | QVQLVESGGGLVQAGGSLRLSCAASGGTFGYNTLGWYRQAPGKERELVAAITGSGGRTYYADSVKGRFTISRDNAKNTVYLQMNSLKPEDTAVYYCNALTYPDYGYWGQGTQVTVSS | low polyreactivity
28 | QVQHVESGGGVVQAGGSLRFSCAASGRIFYRYAMGWYRPAPGKERELVAAITIGGRTNYADSVKGRFTISRDNAKTTVYLQMNSLKPEDTAVYYCAVVLYTRYPPRVRYYYWGQGTQVTVSS | high polyreactivity
29 | QVQLVESGGGLVQAGGSLRLICAASGFIFSRYTMGWYRQAPGKERELVAAISKRGGSTYYADSVKGRFTISRDNAKNTVYLQMNSLKPEDTAVYYCAADRLPSGSLVEYWGQGTQVTVSS | high polyreactivity
30 | HAQLQESGGGMVQAGGSLRRSCAASGSIILFSGMGWYRRARGKERELVASIGFGSITYYADRVKGRFTISRDNANNTVYLQMNSLKPEDTAVYYCAVQVQDESWLDYWGQGTQVTVSC | low polyreactivity
31 | QVQLVESGGGLVQAGGSLRLSCAASGLIFTYYAMGWYRQAPGKERELVAAIRVNGGSTYYADSVKGRFTISRDNAKNTVYFQMNSLKPEDTAVFYCAADYYRLRAASYLIRLNYWGQGTQVTVSS | high polyreactivity
32 | QVQLVESGGGLVQAGGSLRLSCAASGIAYTYNAMGRYRQAPGKERELVASISRTGGSTRYADSVKGRFTISRDNAKYTVYLQMNSLKPEDTAVYYCAALSWRYVKYRFDYWGQGTQVTVSS | high polyreactivity
33 | QVQLVESGGGLVQAGGSLRLSCAASGSIFIIYAMGWYRQAPGKERELVAAINTSGTSTYYADSVKGRFTISRDNAKNTVYLQMNSLKPEDTAVYYCAAAGRRSYKYYFWGQGTQVTVSS | high polyreactivity
34 | QVQLQESGGRLVQAGDSQRLSCASSGNIFRFTDMGWYRQAPGKERELVAAINAGSTTYYADSVKGRFTISRDNAKNTVYLQMNSLKPEDTAFYHCNDPPVYSSTRYGYWGQGTQVTVAS | high polyreactivity
35 | QVQLVESGGGLVQAGGSLRLSCAASVSIFYFYAMGWYIQAPGKERELVAAITDGGSTHYADSVKGRFTISRDNAKNTVYLQMNSLKPEDTAVYYCAAQWHYYLGSGYQYDYWGQGTQVTVSS | low polyreactivity
36 | QVQLVESGGGLFQAGGSLRLSCAASGGTFPYNAMGWYRPAPGKERELVATISFTDGSTYYADSVKGRFTLSRYIAKNTVYLQMNSLKPEDTAVYYCAKDYYRPGMDYWGQGTQVTVSS | low polyreactivity
37 | QVQLVESGGGLVQPGGSLRLSCAASGSIFGSYDMGWYRQAPGKERELVAAITYSVGTTYYADSVKGRFTISRDNAKNTVYLQMNSLKPEDNAVYYCAADFAPVGLPSPFAVSEGEDDYWGQGTQVTVSS | low polyreactivity
38 | QVQLGESGGGLVQAGGSLRLSCAASGRTFYVYAMGWYRQAPGKERELVASIRRSGGITYYADYVKGRFTISRDNAKNTVYLLMNSLKPEDSAVYYCNARRGPGRREYDYWGQGTQVTVSS | high polyreactivity
39 | QVQLVESGGGLVQAGGILRLSCAASGSTFVGYAMGWNRQAPGKERELVAAISRTGASTYYADSVKGRFTISRDNAKNTVFLQMNSLKPEDTEVYYCAYYYSIYDYWGQGTLVTVSS | high polyreactivity
40 | QVQLVESGGGLVQAGGSLRLSCAASGTFAFYTMGWYRQAPGKERELVAAISWDGGDTYYADSVKGRFTISRDNAKNNVYLQMNSLKPEDTAVYYCAAELGYYVYGSYYSYDYCGQGTQVTVSS | high polyreactivity
41 | QVQMQESGGGTVMAGGSLRLSCAASGTIFVRLDMGSYRQAPGKEREFVATIGSGSSTYYADSVKGSFTISRDNVNKSVYLQMNSLKPEDTAVYYCAVSAAEQCRDYYWDQGTQVTVSS | low polyreactivity
42 | QVQLVESGGGLVQAGGSLRLSCAASGSIFAGNAMGWYRQAPGKERELVAAITWSGGSTYYADSVKGRFTISRDNAKNTVYLQMNSLKPEDTAVYYCAADPPGYVYGKRYYWGQGTQVTVSS | high polyreactivity
43 | QVQLVESGGGLVQAGGSLRLSCAASGRIFGAYAMGWSRQAPGKERELVAAISSSGSRTYYADSVKGRFTISRDNAKNTVYLQMNSLKPEDTAVYYCAATRVSALYDYWGQGTQVTVSS | high polyreactivity

Reference: the nanobody polyreactivity screen of Harvey et al. (2022)
